From patent US9611465B2, “Pharmaceutical composition containing core factor involved in proliferation and differentiation of central nervous cell” (Celgene Corporation, priority 2009, dated 2017)
Where a SMILES comes first, the peptide text is derived from it. The star is where a group is joined. Cbz = O=C(OCc1ccccc1)*

What was measured:
[1] = biological target: T1, Ub/E1/E2 (GST fusion ubiquitin, Uba1, UbcH5b) (Homo sapiens, UniProt P0CG47+P22314+P62837); assay: Ubiquitin ligase activity of CRBN using an in vitro reaction system; type: biochemical; conditions: added to Uba1, UbcH5b and GST fusion ubiquitin; FIG. 4, lane 2
T1 construct: a recombinant GST fusion ubiquitin (Ub) protein
T1 sequence (P22314 whole entry, other chains not shown, the tested form may be a part): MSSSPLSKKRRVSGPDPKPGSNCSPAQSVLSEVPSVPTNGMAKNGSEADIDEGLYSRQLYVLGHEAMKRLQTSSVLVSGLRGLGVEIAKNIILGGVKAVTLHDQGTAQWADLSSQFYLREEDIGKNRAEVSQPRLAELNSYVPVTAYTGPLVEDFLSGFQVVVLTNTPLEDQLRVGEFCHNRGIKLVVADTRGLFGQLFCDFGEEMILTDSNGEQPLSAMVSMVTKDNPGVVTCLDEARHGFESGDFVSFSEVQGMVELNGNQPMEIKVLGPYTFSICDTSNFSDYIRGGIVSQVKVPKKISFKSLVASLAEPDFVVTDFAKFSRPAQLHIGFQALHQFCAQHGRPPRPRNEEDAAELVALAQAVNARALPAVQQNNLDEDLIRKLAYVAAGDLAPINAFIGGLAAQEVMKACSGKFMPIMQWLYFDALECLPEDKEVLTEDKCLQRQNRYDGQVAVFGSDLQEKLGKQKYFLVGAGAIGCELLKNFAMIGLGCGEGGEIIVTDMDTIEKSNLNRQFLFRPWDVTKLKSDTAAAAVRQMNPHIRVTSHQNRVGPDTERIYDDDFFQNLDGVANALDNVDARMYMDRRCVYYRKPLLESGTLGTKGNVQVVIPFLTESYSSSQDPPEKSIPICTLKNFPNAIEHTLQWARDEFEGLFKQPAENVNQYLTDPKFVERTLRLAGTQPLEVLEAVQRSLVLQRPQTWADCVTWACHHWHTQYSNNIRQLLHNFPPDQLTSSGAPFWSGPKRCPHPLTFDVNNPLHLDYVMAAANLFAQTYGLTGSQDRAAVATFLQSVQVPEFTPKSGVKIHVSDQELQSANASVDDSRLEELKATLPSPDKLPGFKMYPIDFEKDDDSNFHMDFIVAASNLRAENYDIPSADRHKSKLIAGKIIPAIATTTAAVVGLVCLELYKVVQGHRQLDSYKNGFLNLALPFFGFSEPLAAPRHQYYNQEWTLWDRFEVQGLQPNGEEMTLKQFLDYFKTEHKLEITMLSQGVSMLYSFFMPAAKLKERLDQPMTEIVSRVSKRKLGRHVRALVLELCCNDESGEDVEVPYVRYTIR
T1 sequence (P62837 whole entry, other chains not shown, the tested form may be a part): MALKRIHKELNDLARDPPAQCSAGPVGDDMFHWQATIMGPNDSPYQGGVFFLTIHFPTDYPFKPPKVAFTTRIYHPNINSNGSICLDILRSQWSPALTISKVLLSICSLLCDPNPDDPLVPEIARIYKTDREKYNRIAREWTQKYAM
Description: This process was carried out basically in accordance with the method of Groisman et al. Firstly, CRBN and a binding protein (referred to as a CRBN complex) were purified from a cell lysate solution of mammalian cells expressing CRBN fused with a FLAG epitope tag using M2 FLAG agarose beads (SIGMA). Subsequently, the CRBN complex thus purified was mixed with an aqueous solution containing Uba1 (E1), UbcH5b (E2), and a recombinant GST fusion ubiquitin (Ub) protein, and after addition of ATP, the mixture was left to stand at 30 to 37° C. for two hours. Thereafter, the reaction was terminated by SDS, and self-ubiquitination and ubiquitination of the binding protein were visualized by polyacrylamide gel electrophoresis and immunoblotting, whereby the ubiquitin ligase activity was detected and measured.

[2] = test system: mammalian cells expressing CRBN fused with a FLAG epitope tag; assay: CRBN ubiquitin ligase activity using live cells (self-ubiquitination, immunoblotting); type: cell-based; conditions: MG132 added versus not added (FIG. 5)
Description: This process was carried out basically in accordance with the method of Ohtake et al. MG132, which is a proteasome inhibitor, was applied to mammalian cells expressing CRBN fused with a FLAG epitope tag, and the cells were left still. Subsequently, the cells were disrupted, and from the resulting cell lysate solution, FLAG was purified and CRBN was extracted, and then immunoblotting was performed under similar, but stricter, conditions to the above, whereby the self-ubiquitination was detected and measured.

zebrafish embryo brain = assay: Determination of functional hierarchy of Lhx2 and CRBN (knockdown plus head-specific overexpression); type: in vivo
Description: (§1) The method of lipofection was entirely in accordance with the technique developed and published by Ando et al. (Ando and Okamoto, Efficient transfection strategy for the spatiotemporal control of gene expression in zebrafish. Mar. Biotechnol. 8(3): 295-303, 2006).
An aqueous solution of a 25-mer antisense morpholino oligonucleotide (AMO, Gene Tools, LLC) corresponding to the vicinity of the translation initiation codon in the cDNA sequence of the gene to be knocked down (700 ng/μl, injection conditions were the same as those used for RNA) was injected into the embryos at the 1-cell stage. The sequence of AMO used for crbn gene knockdown is 5′ […] 3′ (SEQ ID NO:1), and that used for lhx2 gene knockdown is 5′ […] 3′ (SEQ ID NO:2).
This process was carried out entirely in accordance with the technique of Ando et al. (H. Ando et al., Lhx2 mediates the activity of Six3 in zebrafish forebrain growth. Dev. Biol. 287(2): 456-468, 2005) except for the following procedure. […] When the effect of knocking down of A is rescued, whereas the effect of knocking down of B is not rescued by an inverted combination of A and B, within a 24-hour period after fertilization, it is determined that A lies functionally upstream of B. […]

[3] = test system: glia cells and serotonin-producing cells of zebrafish; assay: Fluorescent staining of glia cells and serotonin-producing cells; type: in vivo; conditions: CRBN-overexpressing individual
Description: Two-day-old zebrafish were used (for glia cell staining and serotonin-producing cell staining, zebrafish 56 hours and 49 hours after fertilization were used, respectively). Zebrafish were fixed with 4% paraformaldehyde (PFA) and then washed with phosphate buffer (PBS), followed by treatment with 10 μg/ml protease K for partial digestion of the epidermis. After the digestion reaction, the zebrafish were washed with PBST (PBS+0.5% Triton X-100) for 20 minutes and then fixed with PFA again. The fixed zebrafish were washed with PBST at room temperature for one hour, followed by blocking using PBST+5% goat serum. The resulting specimens were reacted with a monoclonal anti-glia antibody (zrf-1/zrf-2) or a rabbit anti-serotonin antibody at 4° C. overnight (12 to 18 hours). Subsequently, the specimens were washed with PBST+5% goat serum for one hour at room temperature, and secondary antibody reaction was carried out by substituting the antibody for a goat anti-mouse IgG antibody (Cy-2 conjugate for glia cell staining) or a goat anti-rabbit IgG antibody (Cy-5 conjugate for serotonin-producing cell staining) at 4° C. overnight (12 to 18 hours). Subsequently, the specimens were washed with PBST at room temperature for one hour. After washing, PBST was replaced by 30%, 50%, 70% glycerol/PBS and the whole zebrafish were mounted on glass slides to obtain preparations. Fluorescence was observed under excitation wavelength of Cy-2 and Cy-5 and the distribution of the glia cells or the serotonin-producing cells was recorded. It is to be noted that glia cells were observed from the lateral side of zebrafish, while the serotonin-producing cells were photographed from the dorsal side in order to observe the distribution of the cells along the midline.

[4] = test system: forebrain and midbrain of the zebrafish embryos; assay: CRBN overexpression experiment in the forebrain and midbrain; type: in vivo
Description: Adult fish were reared at a constant temperature of 28.5° C. and maintained and bred under a diurnal cycle of 14 hours of light-on and 10 hours of light-off. Fertilized eggs were secured by natural mating between males and females, and an aqueous solution of 600 ng/μl capped RNA synthesized in vitro was injected into the cytoplasm of the embryos before the first cleavage (1-cell stage) under conditions of a nitrogen gas pressure of 30 psi and a valve opening time of 30 msec (millisecond). Because the expression of all the genes except the lhx2 gene (i.e., the crbn gene, the six3.2 gene, and a gene encoding a protein composing an E3 ubiquitin ligase complex with crbn) has little impact on the embryonic development, even when systemically expressed, this method was used to obtain the first data.
as §1
Antibody staining of early neurons of zebrafish was performed by the following technique. The embryos 24 to 28 hours after fertilization were fixed at 4° C. for 12 hours in a 4% paraformaldehyde/phosphate buffer (pH 8.0). […]

## FH-CRBN complex: CRBN fused with a FLAG epitope tag and binding proteins, purified from mammalian cell lysate with M2 FLAG agarose beads
[1]
  detection of ubiquitinated proteins by immunoblotting: proteins that would not be detected in the absence of addition of CRBN were detected

## CC(C)C[C@@H](C=O)NC(=O)[C@H](CC(C)C)NC(=O)[C@H](CC(C)C)NC(=O)OCc1ccccc1 [MG132] (Cbz-Leu-Leu-Leu-aldehyde)
[2]
  bands representing the CRBN-containing proteins (self-ubiquitination): a number of bands representing the CRBN-containing proteins were detected

B1: CRBN: protein called CRBN (cereblon) that forms a ubiquitin ligase complex; overexpressed in zebrafish embryos by injected or lipofected crbn RNA (protein, UniProt Q68EH9 1-431, looked up)
Protein cereblon: MGNQLQLLPENEEEEEDDMETEDRDGEDVEKPSIINFDTSLPTSHAYLGSDMEEFHGRTLHDEDSVQNLPVLPHVALILIPGQTLPLQLFRPQEVSMFRNLVSQDRTFAVLAHSPDPSGTETKAEFGTTAEIYAFREEQEYGIETVKIKAVGRQRFRVHDIRTQADGIRQAKVQILPERILPDPLCALQFLPRLHTHSPQTKHTQTTPPQKRCSQNYRQKKLHCASMTSWPPWVYSLYDSKTLMSRVKKQLHEWDENLKDESLPTNPTDFSYRVAACLPIDDALRLQLLKIGSAIQRLRCELDIMDRCTSLCCKQCQDTEITSKNEIFSLSLYGPMAAYVNPHGYVHETLTVYKASNLNLIGRPSTLHSWFPGYAWTIAQCRTCSSHMGWKFSAVKKDLSPPRFWGLTRSALLPTIPQGEEGVEGSRLLCL
Zebrafish embryo brain; crbn gene-overexpressing embryo, compared to the normal embryo (FIG. 1, upper right)
  brain size of embryo: brain enlargement
Zebrafish embryo brain; lhx2 gene knocked down while crbn gene overexpressed (FIG. 1, lower right)
  brain size of embryo: brain enlargement
[3]
  spatial distribution of glia cells and serotonin-producing cells: normal spatial distribution was maintained
[3]; 49 hours after fertilization (FIG. 7)
  serotonin-producing cells: increased
[3]; 56 hours after fertilization (FIG. 6)
  glia cells: increased
[4]; CRBN overexpression (FIG. 2, right)
  morphology of the neuron network in the brain: morphologically normal
[4]; CRBN overexpression, shape retained (FIG. 2, right)
  enlargement of forebrain and midbrain in volume: approximately 1.5 times
